# Values quoted from earlier work in patent US5972698A, “Tryptase inhibitor” (Novartis Corporation, priority 1993, dated 1999).
# B1: ovomucoid inhibitor: proteinase inhibitor derived from non-human species (protein, UniProt P01005 25-210, looked up)
# Ovomucoid: AEVDCSRFPNATDKEGKDVLVCNKDLRPICGTDGVTYTNDCLLCAYSIEFGTNISKEHDGECKETVPMNCSSYANTTSEDGKVMVLCNRAFNPVCGTDGVTYDNECLLCAHKVEQGASVDKRHDGGCRKELAAVSVDCSEYPKPDCTAEDRPLCGSDNKTYGNKCNFCNAVVESNGTLTLSHFGKC
# B2: soybean trypsin inhibitor: printed as 'soybean and lima bean trypsin inhibitor' (protein, UniProt P01070 25-205, looked up)
# Trypsin inhibitor A: DFVLDNEGNPLENGGTYYILSDITAFGGIRAAPTGNERCPLTVVQSRNELDKGIGTIISSPYRIRFIAEGHPLSLKFDSFAVIMLCVGIPTEWSVVEDLPEGPAVKIGENKDAMDGWFRLERVSDDEFNNYKLVFCPQQAEDDKCGDIGISIDHDDGTRRLVVSKNKPLVVQFQKLDKESL
# B3: mucus-proteinaseinhibitor: naturally occurring antiproteinase (protein, UniProt P03973 26-132, looked up)
# Antileukoproteinase: SGKSFKAGVCPPKKSAQCLRYKKPECQSDWQCPGKKRCCPDTCGIKCLDPVDTPNPTRRKPGKCPVTYGQCLMLNPPNFCEMDGQCKRDLKCCMGMCGKSCVSPVKA
# Tested on: Human tryptase
row,inhibition of tryptase (literature),Molecule
1,not affected,B1
2,not affected,B2
3,not inhibited,B3
